This test deals with HLA-A*02 (human). The test is described as follows: UV-ligand exchange, anti-b2m ELISA; grade: exchange yield >=50%. In general terms: In an ELISA, binding on a coated surface is turned into a signal by an enzyme label.

Square brackets hold non-standard residues; d marks the D form. Ends that are not written are not given here. pS = N[C@@H](COP(=O)(O)O)C(=O)O

The molecule VLDEPYEKV came in with a peptide exchange yield of 50 to 75%.

Consider TLQDHLNSL, for which the peptide exchange yield fell in the range of 50 to 75%.

In turn, YIQDEINTI registered a peptide exchange yield of 50 to 75%.

Take RVQEAIAEV: the peptide exchange yield fell in the range of 50 to 75%.

SLLNFLQHL registered a peptide exchange yield of 50 to 75%.

ALLRVTPFI: the peptide exchange yield was 50 to 75%.

Molecule SLLHTIYEV returned a peptide exchange yield of 50 to 75%.

GLLAGDRLVEV had a peptide exchange yield of 50 to 75%.

Regarding ALIEGAGILL, the peptide exchange yield was in the range of 50 to 75%.

Turning to SLLESNKDLLL, the peptide exchange yield lay within 50 to 75%.

Turning to ALNENINQV, the peptide exchange yield was 50 to 75%.

In turn, AILETAPKEV came in with a peptide exchange yield of 50 to 75%.

With SLLEKAGPEL, the peptide exchange yield was in the range of 50 to 75%.

Consider TLFEHLPHI, for which the peptide exchange yield lay within 50 to 75%.

In turn, QLIDYERQL returned a peptide exchange yield of 50 to 75%.

In the case of ALFPALRPGGFQA, the peptide exchange yield lay in the range of 50 to 75%.

Turning to RTIEYLEEV, the peptide exchange yield fell in the range of 50 to 75%.

Turning to YLGPHIASVTL, the peptide exchange yield fell in the range of 50 to 75%.

Take ALRGEIETV: the peptide exchange yield lay within 50 to 75%.

Take SLFSSPPEI: the peptide exchange yield fell in the range of 50 to 75%.

As for GQFPSYLETV, the peptide exchange yield fell in the range of 50 to 75%.

In turn, SLIPAVLTV gave a peptide exchange yield of 50 to 75%.

YLMEGSYNKV returned a peptide exchange yield of 50 to 75%.

For GLLDNPELRV, the peptide exchange yield is 50 to 75%.

SLAEEKLQASV: the peptide exchange yield is 50 to 75%.

The molecule ALANQKLYSV gave a peptide exchange yield of 50 to 75%.

The molecule TLAELGAVQV gave a peptide exchange yield of 50 to 75%.

KLLDLSDSTSV registered a peptide exchange yield of 50 to 75%.

Take QQLDSKFLEQV: the peptide exchange yield is 50 to 75%.

In turn, VLFQEALWHV yielded a peptide exchange yield of 50 to 75%.

As for VLYPSLKEI, the peptide exchange yield was in the range of 50 to 75%.

On to KLISSYYNV, for which the peptide exchange yield was in the range of 50 to 75%.

YQMDIQQEL yielded a peptide exchange yield of 50 to 75%.

Take ALLEENSTPQL: the peptide exchange yield is 50 to 75%.

For ILDDNMQKL, the peptide exchange yield is 50 to 75%.

On to SLDGKAALTEL, for which the peptide exchange yield is 50 to 75%.

FLLGFIPAKA had a peptide exchange yield of 50 to 75%.

For the molecule YLLHFPMAL, the peptide exchange yield was 50 to 75%.

On to LLDDSLVSI, for which the peptide exchange yield is 50 to 75%.

SLLSGRISTL: the peptide exchange yield lay in the range of 50 to 75%.

SLAESSFDV returned a peptide exchange yield of 50 to 75%.

Regarding SLAVLVPIV, the peptide exchange yield was 50 to 75%.

The molecule SLFGQDVKAV came in with a peptide exchange yield of 50 to 75%.

RLYDPASGTISL yielded a peptide exchange yield of 50 to 75%.

Molecule SLFQGVEFHYV had a peptide exchange yield of 50 to 75%.

For KLDAFVEGV, the peptide exchange yield was 50 to 75%.

The molecule VVLDGGQIVTV registered a peptide exchange yield of 50 to 75%.

GLFAPVHKV gave a peptide exchange yield of 50 to 75%.

The molecule FLWERPTLLV had a peptide exchange yield of 50 to 75%.

Turning to YLGEGPRMV, the peptide exchange yield fell in the range of 50 to 75%.

Molecule KLNDLIQRL gave a peptide exchange yield of 50 to 75%.

ATLNIIHSV: the peptide exchange yield lay in the range of 50 to 75%.

SVLDQKILL showed a peptide exchange yield of 50 to 75%.

As for ALYGKTEVV, the peptide exchange yield was in the range of 50 to 75%.

ALADKELLPSV: the peptide exchange yield lay within 50 to 75%.

The molecule SLFEWFHPL had a peptide exchange yield of 50 to 75%.

Regarding SLHNGVIQL, the peptide exchange yield is 50 to 75%.

In turn, TLMDMRLSQV yielded a peptide exchange yield of 50 to 75%.

On to RVA[pS]PTSGV (phosphopeptide from IRS2) [RVAS*PTSGV], for which the peptide exchange yield lay within 50 to 75%.

In turn, FLEETKATV registered a peptide exchange yield of 50 to 75%.

In the case of YLLEKFVAV, the peptide exchange yield is 50 to 75%.

For TLFYSLREV, the peptide exchange yield lay within 50 to 75%.

As for VLPNFLPYNV, the peptide exchange yield was 50 to 75%.

Regarding VLLAQIIQV, the peptide exchange yield is 50 to 75%.

For YIFTTPKSV, the peptide exchange yield lay in the range of 50 to 75%.

SLMGPVVHEV displayed a peptide exchange yield of 50 to 75%.

Consider KMFESFIESV, for which the peptide exchange yield lay within 50 to 75%.

The molecule ILSGIGVSQV had a peptide exchange yield of 50 to 75%.

The record behind these values is US20160250307A1 (IMMATICS BIOTECHNOLOGIES, published 2016).
